Test results as given in patent US20220411483A1 (Chugai, published 2022).
Residue numbers refer to the chain shown, from its start.

T1: human FcγRIIb extracellular domain with C-terminal His tag (human, UniProt P31994 43-217)
T1 construct: extracellular domain; also called FcgRIIb
T1 sequence (looked up): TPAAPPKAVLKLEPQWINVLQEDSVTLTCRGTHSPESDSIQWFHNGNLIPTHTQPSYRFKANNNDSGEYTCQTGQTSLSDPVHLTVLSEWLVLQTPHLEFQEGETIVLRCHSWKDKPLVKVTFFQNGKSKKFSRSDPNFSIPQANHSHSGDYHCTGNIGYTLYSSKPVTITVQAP

T2: human FcγRIIa H type extracellular domain with C-terminal His tag (human, UniProt P12318 34-217)
T2 construct: extracellular domain; also called FcgRIIaH
T2 sequence (looked up): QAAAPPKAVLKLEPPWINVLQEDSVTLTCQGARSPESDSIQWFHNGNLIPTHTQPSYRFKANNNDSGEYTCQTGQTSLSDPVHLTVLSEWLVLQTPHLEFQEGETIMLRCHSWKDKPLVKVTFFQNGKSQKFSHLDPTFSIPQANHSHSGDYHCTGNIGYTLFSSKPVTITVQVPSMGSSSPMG

T3: human FcγRIIa R type extracellular domain with C-terminal His tag (human, UniProt P12318 34-217)
T3 construct: extracellular domain; also called FcgRIIaR
T3 sequence (looked up): T2 sequence (looked up) with H134R

T4: FcgRIIaR (human, UniProt P12318 34-217)
T4 construct: extracellular domain; also called FcγRIIa R type; FcγRIIa (R type)
T4 sequence (looked up): T2 sequence (looked up) with H134R

T5: FcgRIIb (human, UniProt P31994 43-217)
T5 construct: extracellular domain; also called FcγRIIb
T5 sequence (looked up): T1 sequence (looked up)

B1: IL6R-P777/IL6R-L (antibody, human IgG1, kappa)
heavy: QVQLQESGPGLVKPSETLSLTCAVSGHSISHDHAWSWVRQPPGEGLEWIGFISYSGITNYNPSLQGRVTISRDNSKNTLYLQMNSLRAEDTAVYYCARSLARTTAMDYWGEGTLVTVSSASTKGPSVFPLAPSSKSTSGGTAALGCLVKDYFPEPVTVSWNSGALTSGVHTFPAVLQSSGLYSLSSVVTVPSSSLGTQTYICNVNHKPSNTKVDKKVEPKSCDKTHTCPPCPAPDLLGGDSVFLFPPKPKDTLMISRTPEVTCVVIDVAEEDGEVKFNWYVDGVEVHNAKTKPREEQYNSTYRVVSVLTVLHQDWLNGKEYKCAVSNKALPAPIEKTISKAKGQPREPQVYTLPPSRDELTKNQVSLTCLVKGFYPSDIAVEWESNGQPENNYKTTPPVLDSDGSFFLYSKLTVDKSRWQQGNVFSCSVMHEALHNHYTQKSLSLSP
light: not shown
B2: IL6R-P783/IL6R-L (antibody, human IgG1, kappa)
heavy: B1 heavy with D235E, G239D, I266V, A269S, E270H, G273P, A324K, A329G, A332S, P333S
light: not shown
B3: IL6R-P779/IL6R-L (antibody, human IgG1, kappa)
heavy: B1 heavy with D235E
light: not shown
B4: IL6R-P772/IL6R-L (antibody, human IgG1, kappa)
heavy: B1 heavy with D235E, A269S, E270H, A324E
light: not shown
B5: IL6R-P776/IL6R-L (antibody, human IgG1, kappa)
heavy: B1 heavy with D235E, I266V, A269S, E270H, A324E
light: not shown
B6: IL6R-P778/IL6R-L (antibody, human IgG1, kappa)
heavy: B1 heavy with A324E
light: not shown
B7: IL6R-P775/IL6R-L (antibody, human IgG1, kappa)
heavy: B1 heavy with D235E, I266V, A269S, E270H
light: not shown
B8: IL6R-P771/IL6R-L (antibody, human IgG1, kappa)
heavy: B1 heavy with D235E, A269S, E270H
light: not shown
B9: IL6R-P780/IL6R-L (antibody, human IgG1, kappa)
heavy: B1 heavy with D235E, A324E
light: not shown
B10: IL6R-P774/IL6R-L (antibody, human IgG1, kappa)
heavy: B1 heavy with D235E, I266V, A324E
light: not shown
B11: IL6R-P773/IL6R-L (antibody, human IgG1, kappa)
heavy: B1 heavy with D235E, I266V
light: not shown
B12: IL6R-P770/IL6R-L (antibody, human IgG1, kappa)
heavy: B1 heavy with D235E, A269S, E270H, A324K, A329G, A332S, P333S
light: not shown
B13: IL6R-P782/IL6R-L (antibody, human IgG1, kappa)
heavy: B1 heavy with I266V, A269S, E270H, G273P, A324K, A329G, A332S, P333S
light: not shown
B14: IL6R-P784/IL6R-L (antibody, human IgG1, kappa)
heavy: B1 heavy with G239D, I266V, A269S, E270H, G273P, A324K, A329G, A332S, P333S
light: not shown
B15: IL6R-P781/IL6R-L (antibody, human IgG1, kappa)
heavy: B1 heavy with D235E, I266V, A269S, E270H, G273P, S300A, A324K, A329G, A332S, P333S
light: not shown
B16: IL6R-P606/IL6R-L (antibody, human IgG1, kappa)
heavy: B1 heavy with S241K, A324K
light: not shown
B17: IL6R-P607/IL6R-L (antibody, human IgG1, kappa)
heavy: B1 heavy with G239D, S241K, Y298D, A324K, A332R, P398M
light: not shown
B18: IL6R-P609/IL6R-L (antibody, human IgG1, kappa)
heavy: B1 heavy with L236A, A324K
light: not shown
B19: IL6R-P614/IL6R-L (antibody, human IgG1, kappa)
heavy: B1 heavy with L237A, G239D, Y298D, A324K, A332R, P398M
light: not shown
B20: IL6R-P611/IL6R-L (antibody, human IgG1, kappa)
heavy: B1 heavy with L236A, G239D, Y298D, A324K, A332R, P398M
light: not shown
B21: IL6R-P613/IL6R-L (antibody, human IgG1, kappa)
heavy: B1 heavy with L237A, A324K
light: not shown
B22: IL6R-P637/IL6R-L (antibody, human IgG1, kappa)
heavy: B1 heavy with A269Y, A324K
light: not shown

Target: T6, human FcγRIa extracellular domain with C-terminal His tag (human, UniProt P12314 16-292)
T6 construct: Whole entry named; also called FcgRIa
Assay: SPR, KD of IL6R-G1d/IL6R-L divided by KD of variant

T6 sequence (P12314 16-292): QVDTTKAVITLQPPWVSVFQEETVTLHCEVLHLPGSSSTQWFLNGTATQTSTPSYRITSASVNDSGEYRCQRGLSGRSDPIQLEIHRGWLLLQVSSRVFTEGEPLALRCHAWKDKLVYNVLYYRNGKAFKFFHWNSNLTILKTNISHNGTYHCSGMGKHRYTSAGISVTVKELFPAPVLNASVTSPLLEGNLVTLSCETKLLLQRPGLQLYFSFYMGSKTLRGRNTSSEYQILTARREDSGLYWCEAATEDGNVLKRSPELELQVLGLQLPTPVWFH

| Binder | Relative FcgRIa-binding Activity |
| --- | --- |
| B1 | 0.2 |
| B2 | 0.002 |
| B3 | 0.094 |
| B4 | 0.035 |
| B5 | 0.062 |
| B6 | 0.333 |
| B7 | 0.037 |
| B8 | 0.023 |
| B9 | 0.152 |
| B10 | 0.291 |
| B11 | 0.152 |
| B12 | 0.021 |
| B13 | 0.011 |
| B14 | 0.004 |
| B15 | 0.019 |

Target: T1, human FcγRIIb extracellular domain with …
Assay: as above

| Binder | Relative FcgRIIb-binding Activity |
| --- | --- |
| B1 | 40.4 |
| B2 | 0.6 |
| B3 | 42 |
| B4 | 21.6 |
| B5 | 7.5 |
| B6 | 84 |
| B7 | 5.3 |
| B8 | 15 |
| B9 | 61.8 |
| B10 | 23.9 |
| B11 | 15 |
| B12 | 12.4 |
| B13 | 0.6 |
| B14 | 1 |
| B15 | 0.2 |

Target: T2, human FcγRIIa H type extracellular …
Assay: as above

| Binder | Relative FcgRIIaH-binding Activity |
| --- | --- |
| B1 | 0.008 |
| B2 | 0.006 |
| B3 | 0.009 |
| B4 | 0.006 |
| B5 | 0.006 |
| B6 | 0.01 |
| B7 | 0.005 |
| B8 | 0.007 |
| B9 | 0.008 |
| B10 | 0.008 |
| B11 | 0.006 |
| B12 | 0.006 |
| B13 | 0.005 |
| B14 | 0.007 |
| B15 | 0.003 |

Target: T3, human FcγRIIa R type extracellular …
Assay: as above

| Binder | Relative FcgRIIaR-binding Activity |
| --- | --- |
| B1 | 0.58 |
| B2 | 0.03 |
| B3 | 0.5 |
| B4 | 0.35 |
| B5 | 0.28 |
| B6 | 0.85 |
| B7 | 0.2 |
| B8 | 0.26 |
| B9 | 0.65 |
| B10 | 0.55 |
| B11 | 0.41 |
| B12 | 0.32 |
| B13 | 0.03 |
| B14 | 0.05 |
| B15 | 0.1 |

Target: T7, human FcγRIIIa V type extracellular domain with C-terminal His tag (human, UniProt P08637 17-208)
T7 construct: extracellular domain; also called FcgRIIIaV
Assay: as above

T7 sequence (P08637 17-208 F176V): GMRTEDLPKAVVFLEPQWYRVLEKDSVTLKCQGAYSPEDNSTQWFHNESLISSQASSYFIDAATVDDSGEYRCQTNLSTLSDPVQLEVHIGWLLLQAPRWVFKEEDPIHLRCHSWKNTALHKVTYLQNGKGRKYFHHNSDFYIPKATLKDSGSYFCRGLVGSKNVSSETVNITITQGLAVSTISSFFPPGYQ

| Binder | Relative FcgRIIIaV-binding Activity |
| --- | --- |
| B1 | 0.007 |
| B2 | 0.006 |
| B3 | 0.011 |
| B4 | 0.006 |
| B5 | 0.01 |
| B6 | 0.009 |
| B7 | 0.007 |
| B8 | 0.01 |
| B9 | 0.008 |
| B10 | 0.012 |
| B11 | 0.009 |
| B12 | 0.007 |
| B13 | 0.006 |
| B14 | 0.01 |
| B15 | 0.007 |

Target: T6, human FcγRIa extracellular domain with …
Assay: SPR, antibody captured, FcgR analyte

| Binder | Kd [nM] |
| --- | --- |
| B1 | 1.6 |
| B2 | 160 |
| B3 | 3.4 |
| B4 | 9.1 |
| B5 | 5.2 |
| B6 | 0.96 |
| B7 | 8.6 |
| B8 | 14 |
| B9 | 2.1 |
| B10 | 1.1 |
| B11 | 2.1 |
| B12 | 15 |
| B13 | 30 |
| B14 | 88 |
| B15 | 17 |

Target: T1, human FcγRIIb extracellular domain with …
Assay: SPR, antibody captured, FcgR analyte

| Binder | Kd [nM] |
| --- | --- |
| B1 | 52 |
| B2 | 3800 |
| B3 | 50 |
| B4 | 97 |
| B5 | 280 |
| B6 | 25 |
| B7 | 400 |
| B8 | 140 |
| B9 | 34 |
| B10 | 88 |
| B11 | 140 |
| B12 | 170 |
| B13 | 3600 |
| B14 | 2200 |
| B15 | 9000 |

Target: T3, human FcγRIIa R type extracellular …
Assay: SPR, antibody captured, FcgR analyte

| Binder | Kd [nM] |
| --- | --- |
| B1 | 1900 |
| B2 | 39000 |
| B3 | 2200 |
| B4 | 3100 |
| B5 | 4000 |
| B6 | 1300 |
| B7 | 5400 |
| B8 | 4300 |
| B9 | 1700 |
| B10 | 2000 |
| B11 | 2700 |
| B12 | 3400 |
| B13 | 37000 |
| B14 | 21000 |
| B15 | 11000 |

Target: T4, FcgRIIaR
Assay: SPR, amount bound per captured antibody

| Binder | Relative FcgRIIaR-binding Activity [IL6R-G1d/IL6R-L=100] |
| --- | --- |
| B16 | 4.8 |
| B17 | 6.1 |
| B18 | 82.6 |
| B19 | 69.5 |
| B20 | 107 |
| B21 | 61.2 |

Target: T5, FcgRIIb
Assay: SPR, amount bound per captured antibody

| Binder | Relative FcgRIIb-binding Activity [IL6R-G1d/IL6R-L=100] |
| --- | --- |
| B16 | 7.7 |
| B22 | 55.5 |
| B17 | 21.8 |
| B18 | 178 |
| B19 | 176 |
| B20 | 183 |
| B21 | 120 |
